This note sets out measurements from the supplement of paper PMC7877785.

± gives the uncertainty stated by the source.

The data set in a line: self-splicing fitness, log relative to wild type (ln ratio); higher = more splicing; Tetrahymena group I intron in knt gene, E. coli kanamycin selection, DiMSum; sequences stand for … in CUCUCU…GGAGGGAAAAGUUAUCAGGCAUGCACCUGGUAGCUAGUCUUUAAACCAAUAGAUUGCAUCGGUUUAAAAGGCAAGACCGUCAAAUUGCGGGAAAGGGGUCAACAGCCGUUCAGUACCAAGUCUCAGGGGAAACUUUGAGAUGGCCUUGCAAAGGGUAUGGUAAUAAGCUGACGGACAUGGUCCUAACCACGCAGCCAAGUCCUAAGUCAACAGAUCUUCUGUUGAUAUGGAUGCAGUUCACAGACUAAAUGUCGGUCGGGGAAGAUGUAUUCUUCUCAUAAGAUAUAGUCGGACCUCUCCUUAAUGGGAGCUAGCGGAUGAAGUGAUGCAACACUGGAGCCGCUGGGAACUAAUUUGUAUGCGAAAGUAUAUUGAUUAGUUUUGGAGUACUCGUGGUCG
The method in brief:
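Pooled colonies went to amplicon sequencing on an Illumina HiSeq 2500 after six replicate transformations. The plates were LB agar with 100 μg/mL carbenicillin, 50 μM IPTG and 0.2% rhamnose, with or without 25 μg/mL kanamycin, incubated overnight at 37°C or 30°C. The E. coli BL21(DE3) library had all eight P1ex-region intron nucleotides randomised, the intron placed in the knt kanamycin-resistance gene on pET-22b(+). DiMSum fitness is the error-weighted combination of replicate fold changes, kanamycin against none, normalised to wild type.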

As for UGUGAGCAAUAUUACGAUUU, for the setting “37 °C”, the “self-splicing fitness (ln)” value is -2.06 ± 0.27. Consider UCCCAGCAAUAUUACGCUGG, for which the “self-splicing fitness (ln)” value is, setting by setting: (30 °C) -3.94 ± 0.16; (37 °C) -2.62 ± 0.16.

On to UAAAAGCAAUAUUACGGCAG, for which the “self-splicing fitness (ln)” value was -0.504 ± 0.079 (30 °C) and -0.106 ± 0.097 (37 °C). Take CCAAAGCAAUAUUACGCCCC: the “self-splicing fitness (ln)” value (37 °C) was -0.985 ± 0.44.

As to AGCUAGCAAUAUUACGAGAG, the “self-splicing fitness (ln)” value reads like this: (30 °C) -2.83 ± 0.15; (37 °C) -3.13 ± 0.28.

With GCCGAGCAAUAUUACGAGCC, the “self-splicing fitness (ln)” value (30 °C) is -3.06 ± 0.14 and the “self-splicing fitness (ln)” value (37 °C) is -2.3 ± 0.24. For AUCGAGCAAUAUUACGUGGC, the “self-splicing fitness (ln)” value was -2.91 ± 0.26 (30 °C) and -2.52 ± 0.49 (37 °C). Take GUCGAGCAAUAUUACGAUAC: the “self-splicing fitness (ln)” value (30 °C) is -0.265 ± 0.28 and the “self-splicing fitness (ln)” value (37 °C) is -0.381 ± 0.24. Consider UAUCAGCAAUAUUACGCCCA, for which the “self-splicing fitness (ln)” value worked out at 0.297 ± 0.18 (30 °C) and 0.008 ± 0.18 (37 °C).

As to CUUUAGCAAUAUUACGCUUA, the “self-splicing fitness (ln)” value is -3.33 ± 0.37 (30 °C) and -3.35 ± 0.4 (37 °C). In the same order, the values of CAGCAGCAAUAUUACGGCGU are -1.61 ± 0.07 and -0.859 ± 0.08. For UGGUAGCAAUAUUACGCUCU the same measures were -2.22 ± 0.2 and -1.31 ± 0.24. In the case of GGCGAGCAAUAUUACGGGGA, the “self-splicing fitness (ln)” value reads like this: (30 °C) -2.39 ± 0.2; (37 °C) -2.29 ± 0.29. In the same order, the values of UCUUAGCAAUAUUACGUGGU are -3.39 ± 0.16 and -3.1 ± 0.23.

In the case of AUUCAGCAAUAUUACGUUUU, the “self-splicing fitness (ln)” value is -2.06 ± 0.09 (30 °C) and -0.724 ± 0.091 (37 °C).

For GGCGAGCAAUAUUACGUCAA, the “self-splicing fitness (ln)” value is, setting by setting: (30 °C) -3.73 ± 0.34; (37 °C) -1.71 ± 0.15. Regarding GCAGAGCAAUAUUACGCUAG, the “self-splicing fitness (ln)” value was -1.83 ± 0.44 (30 °C) and -1.79 ± 0.2 (37 °C). As for AUCAAGCAAUAUUACGCGCG, the “self-splicing fitness (ln)” value runs as follows: (30 °C) -1.01 ± 0.094; (37 °C) -0.0559 ± 0.13. As to AAGGAGCAAUAUUACGUACA, the “self-splicing fitness (ln)” value was -2.75 ± 0.33 (30 °C) and -2.11 ± 0.21 (37 °C).

As to CAGGAGCAAUAUUACGUAAG, the “self-splicing fitness (ln)” value reads like this: (30 °C) -0.111 ± 0.097; (37 °C) 0.23 ± 0.12.

AAGGAGCAAUAUUACGGGGU: the “self-splicing fitness (ln)” value (30 °C) was -3.61 ± 0.18 and the “self-splicing fitness (ln)” value (37 °C) was -2.31 ± 0.15. For CACCAGCAAUAUUACGACUC the same measures were -3.42 ± 0.21 and -1.62 ± 0.18.

As to GAAAAGCAAUAUUACGGCUC, the “self-splicing fitness (ln)” value is -0.401 ± 0.085 (30 °C) and 0.342 ± 0.12 (37 °C). For AGGCAGCAAUAUUACGGAAU the same measures were -1.67 ± 0.057 and -0.844 ± 0.084. As to GAAAAGCAAUAUUACGCACU, the “self-splicing fitness (ln)” value by setting is: (30 °C) -0.498 ± 0.098; (37 °C) 0.475 ± 0.1. For ACGCAGCAAUAUUACGGGAA, the “self-splicing fitness (ln)” value is -2.99 ± 0.14 (30 °C) and -2 ± 0.12 (37 °C). In the same order, the values of CCUUAGCAAUAUUACGGCUU are -3.99 ± 0.37 and -1.99 ± 0.2.

On to UCGUAGCAAUAUUACGACGG, for which the “self-splicing fitness (ln)” value (30 °C) was -2.04 ± 0.2 and the “self-splicing fitness (ln)” value (37 °C) was -0.573 ± 0.19. In the same order, the values of CGUAAGCAAUAUUACGGCGG are -0.217 ± 0.072 and -0.126 ± 0.096. UUGCAGCAAUAUUACGGGAU: the “self-splicing fitness (ln)” value (30 °C) is -3.42 ± 0.17 and the “self-splicing fitness (ln)” value (37 °C) is -1.68 ± 0.12.

As for AGGAAGCAAUAUUACGCUCA, the “self-splicing fitness (ln)” value is, setting by setting: (30 °C) -0.332 ± 0.13; (37 °C) -0.339 ± 0.16. CGAAAGCAAUAUUACGUCUG: the “self-splicing fitness (ln)” value reads like this: (30 °C) -0.362 ± 0.066; (37 °C) 0.364 ± 0.078. In the case of CGACAGCAAUAUUACGAUUU, the “self-splicing fitness (ln)” value was -2.34 ± 0.075 (30 °C) and -1.26 ± 0.087 (37 °C). With UUGGAGCAAUAUUACGCGGG, the “self-splicing fitness (ln)” value by setting is: (30 °C) -3.26 ± 0.19; (37 °C) -0.733 ± 0.15. On to ACAUAGCAAUAUUACGAUGC, for which the “self-splicing fitness (ln)” value is, setting by setting: (30 °C) -3.16 ± 0.15; (37 °C) -0.811 ± 0.12. For GUCAAGCAAUAUUACGACGA, the “self-splicing fitness (ln)” value is -3.52 ± 0.29 (30 °C) and -1.88 ± 0.18 (37 °C). For CCAUAGCAAUAUUACGCGGC the same measures were -4.01 ± 0.35 and -2.87 ± 0.43. Turning to GCAAAGCAAUAUUACGGCAU, the “self-splicing fitness (ln)” value is, setting by setting: (30 °C) -0.675 ± 0.095; (37 °C) 0.0956 ± 0.1.
